Patent publication US9266964

Assays:
[1] = target: T1, human plasma kallikrein (human, UniProt P03952 20-390; P03952 391-638); experiment: apparent inhibition constant (Ki,app) against human pKal, enzyme inhibition
T1 construct: also called pKal; human pKal

[2] = target: T1, human plasma kallikrein; experiment: ELISA, biotinylated plasma kallikrein coated on microtiter plate, signal divided by streptavidin background
From the text: Abbreviations used: "T/B" is the ELISA signal obtained using of the "target" (biotinylated plasma kallikrein) divided by the ELISA signal of the "background" (streptavidin); both of which were coated on microtiter plates. "nd" is not determined. The symbol "q" refers to the amber suppressible stop codon (TAG), which is translated as glutamine (Q) in strains of *E. coli* such as the TG1 cells that were used to express the Fab fragments.

T1 sequence (P03952 20-390, chain 1 of 2): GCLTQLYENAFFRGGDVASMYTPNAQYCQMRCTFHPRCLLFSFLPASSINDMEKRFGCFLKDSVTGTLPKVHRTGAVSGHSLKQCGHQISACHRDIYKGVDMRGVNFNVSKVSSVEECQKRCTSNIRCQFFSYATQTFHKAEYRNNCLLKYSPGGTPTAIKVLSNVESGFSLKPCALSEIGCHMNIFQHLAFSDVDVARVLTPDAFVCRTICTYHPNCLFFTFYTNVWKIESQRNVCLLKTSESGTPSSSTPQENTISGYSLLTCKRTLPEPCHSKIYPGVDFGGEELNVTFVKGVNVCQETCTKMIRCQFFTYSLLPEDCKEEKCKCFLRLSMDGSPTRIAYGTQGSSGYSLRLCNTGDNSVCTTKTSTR
T1 sequence (P03952 391-638, chain 2 of 2): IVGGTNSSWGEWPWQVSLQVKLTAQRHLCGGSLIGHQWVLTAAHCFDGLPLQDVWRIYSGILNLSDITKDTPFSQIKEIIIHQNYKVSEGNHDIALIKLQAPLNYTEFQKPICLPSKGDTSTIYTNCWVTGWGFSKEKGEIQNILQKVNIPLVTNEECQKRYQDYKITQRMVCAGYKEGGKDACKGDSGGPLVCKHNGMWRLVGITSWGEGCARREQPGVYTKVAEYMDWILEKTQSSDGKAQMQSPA

Binder	Ki [1]	Human pKal ELISA (T/B) [2]
M146-E12 (Fab, V domains shown, Printed HC runs from VH into the start of CH1) VH: EVQLLESGGGLVQPGGSLRLSCAASGFTFSRYIMHWVRQAPGKGLEWVSSISPSGGLTSYADSVKGRFTISRDNSKNTLYLQMNSLRAEDTAVYYCAREFENAYHYYYYGMDVWGQGTTVTVSS VL: DIQMTQSPSSLSASVGDRVTITCRASGDIGNALGWYQQKPGKAPRLLISDASTLQSGVPLRFSGSGSGTEFTLTISSLQPEDFATYYCLQGYNYPRTFGQGTKLEIR	2.2 nM	49.6 ratio of ELISA signal on target to background (streptavidin)
M29-E09 (Fab, V domains shown, Printed HC runs from VH into the start of CH1) VH: EVQLLESGGGLVQPGGSLRLSCAASGFTFSWYEMGWVRQAPGKGLEWVSSIYSSGGGTMYADSVKGRFTISRDNSKNTLYLQMNSLRAEDTAVYYCARNPQYSGYDRSLSDGAFDIWGQGTMVTVSS VL: QYELTQPPSVSVSPGQTATITCSGDNLGNKYNSWYQQKPGQSPLLVIYQDTKRPSAIPERFSGSNSGNTATLTISGTQAMDEADYYCQAWDGNVVFGGGTKLTVL	11 nM	28.8 ratio of ELISA signal on target to background (streptavidin)
M10-F10 (Fab, V domains shown, Printed HC runs from VH into the start of CH1) VH: EVQLLESGGGLVQPGGSLRLSCAASGFTFSFYNMNWVRQAPGKGLEWVSSISPSGGETNYADSVKGRFTISRDNSKNTLYLQMNSLRAEDTAVYYCARGGGAYRNNWWGGFDIWGLGTMVTVSS VL: DIQMTQSPSSLSASVGDRVTITCRASQSISVYLNWYQHKPGKAPKLLIYGASNLQFGVPSRFSGSGYGTDFTLTISSLQPEDFATYHCQQTFSLFTFGGGTKVEIK	< 100 nM	39.2 ratio of ELISA signal on target to background (streptavidin)
M41-A11 (Fab, V domains shown, Printed HC runs from VH into the start of CH1) VH: EVQLLESGGGLVQPGGSLRLSCAASGFTFSHYRMSWVRQAPGKGLEWVSSIYPSGGRTVYADSVKGRFTISRDNSKNTLYLQMNSLRAEDTAVYYCAKDKFEWRLLFRGIGNDAFDIWGQGTMVTVSS VL: QSVLTQPPSVSVSPGQTASITCSGDKLGDKYTSWYQQRPGQSPVLVIYQDIKRPSGIPERFSGSNSGNTATLTISGTQAMDEADYYCQAWDSPNARVFGSGTKVTVL	13 nM	28 ratio of ELISA signal on target to background (streptavidin)
M145-D11 (Fab, V domains shown, Printed HC runs from VH into the start of CH1; also called 559A-M145-D11; 559A-M0145-D11) VH: EVQLLESGGGLVQPGGSLRLSCAASGFTFSHYRMSWVRQAPGKGLEWVSSIYPSGGRTVYADSVKGRFTISRDNSKNTLYLQMNSLRAEDTAVYYCAKDKFEWRLLFRGIGNDAFDIWGQGTMVTVSS VL: QSVLTQPPSVSVSPGQTASITCSGDKLGDKYTSWYQQRPGQSPVLVIYQDIKRPSGIPERFSGSNSGNTATLTISGTQAMDEADYYCQAWDSPNARVFGSGTKVTVL	0.79 nM	40 ratio of ELISA signal on target to background (streptavidin)
M8-A09 (Fab, V domains shown, Printed HC runs from VH into the start of CH1) VH: EVQLLESGGGLVQPGGSLRLSCAASGFTFSTYFMLWVRQAPGKGLEWVSSIYPSGGNTVYADSVKGRFTISRDNSKNTLYLQMNSLRAEDTAVYYCARAASPVRNYYYYGMDVWGQGTTVTVSS VL: QCELTQPPSESVSPGQTANITCSGDKLGNKYAYWYQQKPGQSPVLVIYQDNNRPSGIPERFSGSNSGNTATLTISGTQAIDEANYYCQAWDSRTVVFGGGTKLTVL	105 nM	5.4 ratio of ELISA signal on target to background (streptavidin)
M76-D01 (Fab, V domains shown, Printed HC runs from VH into the start of CH1 (printed end APSPKS)) VH: EVQLLESGGGLVQPGGSLRLSCAASGFTFSFYAMHWVRQAPGKGLEWVSGIVPSGGRTHYADSVKGRFTISRDNSKNTLYLQMNSLRAEDTAVYYCATDSSGSPNPLFDYWGQGTLVTVSS VL: DIVMTQTPPSLPVNPGEPASISCRSSQSLSDDGNTYLDWYLQRPGQSPQLLIHTLSYRASGVPDRFSGSGSGTDFTLKISRVEAEDVGVYYCMQGTHWPPTFGQGTKVEIK	< 100 nM	11.2 ratio of ELISA signal on target to background (streptavidin)
M137-E12 (Fab, V domains shown, Printed HC runs from VH into the start of CH1) VH: EVQLLESGGGLVQPGGSLRLSCAASGFTFSDYRMQWVRQAPGKGLEWVSVIVPSGGNTMYADSVKGRFTISRDNSKNTLYLQMNSLRAEDTAVYYCARGGPGSSIAARRAPTGYYGMDVWGQGTTVTVSS VL: QSVLIQPPSVSGIPGQRVTISCSGNNSNFGSNTVTWYQQLPGTAPKLLIYSDSRRPSGVPDRFSGSRSDTSASLAISGLQSEDEAEYHCAAWDDSLNGVFGGGTKLTVL	79 nM	4.5 ratio of ELISA signal on target to background (streptavidin)
M73-D06 (Fab, V domains shown, Printed HC runs from VH into the start of CH1) VH: EVQLLESGGGLVQPGGSLRLSCAASGFTFSRYEMYWVRQAPGKGLEWVSSISSSGGPTAYADSVKGRFTISRDNSKNTLYLQMNSLRAEDTAMYYCAKGTPKWELLLRSIYIENAFDIWGQGTMVTVSS VL: QSELTQPPSASETPGQRVTISCSGSSSNIGSNTVSWFQQLPGSAPRLLIYNDHRRPSGVPDRFSGSKSGTSASLVISGLQSQDEADYYCSAWDDSLNGVVFGGGTKLTVL	< 100 nM	4 ratio of ELISA signal on target to background (streptavidin)
M110-C12 (Fab, V domains shown, Printed HC runs from VH into the start of CH1) VH: EVQLLESGGGLVQPGGSLRLSCAASGFTFSYYEMDWVRQAPGKGLEWVSGISSSGGHTAYADSVKGRFTISRDNSKNTLYLQMNSLRAEDTATYYCARERRSSSRARYYYGMDVWGQGTTVTVSS VL: DIQMTQSPLSLSVTPGEPASISCRSSLSLLHSNGYNYLDWYVQRPGQSPQLLMYLSSTRASGVPDRFSGSGSGTDFTLEISRVEAEDVGVYYCMQPLETPPTFGGGTKVEIK	< 100 nM	2.4 ratio of ELISA signal on target to background (streptavidin)
M142-H08 (Fab, V domains shown, Printed HC runs from VH into the start of CH1) VH: EVQLLESGGGLVQPGGSLRLSCAASGFTFSAYSMIWVRQAPGKGLEWVSYIRPSGGRTTYADSVKGRFTISRDNSKNTLYLQMNSLRAEDTAVYYCARGGLLLWFRELKSNYFDYWGQGTLVTVSS VL: DIQMTQSPSSLSAFVGDRVTITCRASQPIDNYLNWYHQKPGKAPKLLIYAASRLQSGVPSRLSGSGFGTDFTLTISSLQPEDFGNYYCQQSYTVPYTFGGGTKVEIR	0.2 nM	29.9 ratio of ELISA signal on target to background (streptavidin)
M7-B04 (Fab, V domains shown, Printed HC runs from VH into the start of CH1) VH: EVQLLESGGGLVQPGGSLRLSCAASGFTFSWYSMVWVRQAPGKGLEWVSSISPSGGLTNYADSVKGRFTISRDNSKNTLYLQMNSLRAEDTAVYYCARHTAARPFYYYYMDVWGKGTTVTVSS VL: QSALTQPASVSGSPGQSITISCTGTNSDVGNYNLVSWYQQHPGEAPKLLIYEVNKRPSGVSNRFSGSKSGNTASLTISGLQAEDEADYLCCSYAGNRNFYVFGAGTKVTVL	54 nM	4.1 ratio of ELISA signal on target to background (streptavidin)
M29-D09 (Fab, V domains shown, Printed HC runs from VH into the start of CH1; also called 559A-M29-D09; 559A-M0029-D09) VH: EVQLLESGGGLVQPGGSLRLSCAASGFTFSWYTMVWVRQAPGKGLEWVSYIYPSGGATFYADSVKGRFTISRDNSKNTLYLQMNSLRAEDTAVYYCAMGSYDYIWGFYSDHWGQGTLVTVSS VL: QSALTQPPTVSVSPGQTARITCSGNKLGDKYVAWYQQKPGQSPMLVIYQDTKRPSRVSERFSGSNSANTATLSISGTQALDEADYYCQAWDSSIVIFGGGTRLTVL	0.7 nM	47.5 ratio of ELISA signal on target to background (streptavidin)
M35-G04 (Fab, V domains shown, Printed HC runs from VH into the start of CH1; also called 559A-M35-G04; 559A-M0035-G04) VH: EVQLLESGGGLVQPGGSLRLSCAASGFTFSYYHMSWVRQAPGKGLEWVSVISPSGGSTKYADSVKGRFTISRDNSKNTLYLQMNSLRAEDTAVYYCARGGSSDYAWGSYRRPYYFDYWGQGTLVTVSS VL: DIQMTQSPATLSLSPGERATLSCRASQSVSSYLAWYQQKPGQAPRLLIYDASNRATGIPARFSGSGSGTDFTLTISSLEPEDFAVYYCQQRSNWPRGFTFGPGTKVDIK	2.9 nM	11.1 ratio of ELISA signal on target to background (streptavidin)
M145-D01 (Fab, V domains shown, Printed HC runs from VH into the start of CH1) VH: EVQLLESGGGLVQPGGSLRLSCAASGFTFSYYHMSWVRQAPGKGLEWVSVISPSGGSTKYADSVKGRFTISRDNSKNTLYLQMNSLRAEDTAVYYCARGGSSDYAWGSYRRPYYFDYWGQGTLVTVSS VL: DIQMTQSPATLSLSPGERATLSCRASQSVSSYLAWYQQKPGQAPRLLIYDASNRATGIPARFSGSGSGTDFTLTISSLEPEDFAVYYCQQRSNWPRGFTFGPGTKVDIK	1.1 nM	6.2 ratio of ELISA signal on target to background (streptavidin)
M6-D09 (Fab, V domains shown, Printed HC runs from VH into the start of CH1; also called M06-D09; 559A-M06-D09) VH: EVQLLESGGGLVQPGGSLRLSCAASGFTFSFYYMVWVRQAPGKGLEWVSVIYPSGGITVYADSVKGRFTISRDNSKNTLYLQMNSLRAEDTAVYYCARDKWAVMPPYYYYAMDVWGQGTTVTVSS VL: DIQMTQSPSSLSASVGDRVTITCRASQSIRNYLNWYQQKPGKAPNLLIYAASTLQSGVPARFSGSGSGTDFTLTISSLQPEDFATYYCQQLSGYPHTFGQGTKLEIK	5.9 nM	39.9 ratio of ELISA signal on target to background (streptavidin)
M7-E07 (Fab, V domains shown, Printed HC runs from VH into the start of CH1) VH: EVQLLESGGGLVQPGGSLRLSCAASGFTFSWYLMIWVRQAPGKGLEWVSYIYPSGGFTYYADSVKGRFTISRDNSKNTLYLQMNSLRAEDMAVYYCARTEGPLSWGYGMDVWGQGTTVTVSS VL: not shown	36 nM	45.7 ratio of ELISA signal on target to background (streptavidin)
M27-E05 (Fab, V domains shown, Printed HC runs from VH into the start of CH1) VH: EVQLLESGGGLVQPGGSLRLSCAASGFTFSWYLMIWVRQAPGKGLEWVSYIYPSGGFTYYADSVKGRFTISRDNSKNTLYLQMNSLRAEDMAVYYCARTEGPLSWGYGMDVWGQGTTVTVSS VL: not shown	16 nM	41.3 ratio of ELISA signal on target to background (streptavidin)
M38-F02 (Fab, V domains shown, Printed HC runs from VH into the start of CH1) VH: EVQLLESGGGLVQPGGSLRLSCAASGFTFSYYMMVWVRQAPGKGLEWVSYIYSSGGHTVYADSVKGRFTISRDNSKNTLYLQMNSLRAEDTAVYYCARDLFLYDFWSKGAFDIWGQGTMVTVSS VL: QSVLTQPPSVSVSPGQTASITCSGEKLGDKYVSWYQQKPGQSPSLVICEDSRRPSGIPERFSGSNSGNTATLTISGAQPMDEADYYCQAWDSSTAIFGPGTKVTVL	14 nM	33.5 ratio of ELISA signal on target to background (streptavidin)
